{"source": "paper PMC4615246", "about": "(Nucleus, 2015)", "test_in_all_cases": "LacI/LacO array recruitment in cells", "key": {"[1]": {"molecular_target": "T1, LacI-CFP-Nup133 (human, UniProt Q8WUM0 1-1156)", "T1 sequence": "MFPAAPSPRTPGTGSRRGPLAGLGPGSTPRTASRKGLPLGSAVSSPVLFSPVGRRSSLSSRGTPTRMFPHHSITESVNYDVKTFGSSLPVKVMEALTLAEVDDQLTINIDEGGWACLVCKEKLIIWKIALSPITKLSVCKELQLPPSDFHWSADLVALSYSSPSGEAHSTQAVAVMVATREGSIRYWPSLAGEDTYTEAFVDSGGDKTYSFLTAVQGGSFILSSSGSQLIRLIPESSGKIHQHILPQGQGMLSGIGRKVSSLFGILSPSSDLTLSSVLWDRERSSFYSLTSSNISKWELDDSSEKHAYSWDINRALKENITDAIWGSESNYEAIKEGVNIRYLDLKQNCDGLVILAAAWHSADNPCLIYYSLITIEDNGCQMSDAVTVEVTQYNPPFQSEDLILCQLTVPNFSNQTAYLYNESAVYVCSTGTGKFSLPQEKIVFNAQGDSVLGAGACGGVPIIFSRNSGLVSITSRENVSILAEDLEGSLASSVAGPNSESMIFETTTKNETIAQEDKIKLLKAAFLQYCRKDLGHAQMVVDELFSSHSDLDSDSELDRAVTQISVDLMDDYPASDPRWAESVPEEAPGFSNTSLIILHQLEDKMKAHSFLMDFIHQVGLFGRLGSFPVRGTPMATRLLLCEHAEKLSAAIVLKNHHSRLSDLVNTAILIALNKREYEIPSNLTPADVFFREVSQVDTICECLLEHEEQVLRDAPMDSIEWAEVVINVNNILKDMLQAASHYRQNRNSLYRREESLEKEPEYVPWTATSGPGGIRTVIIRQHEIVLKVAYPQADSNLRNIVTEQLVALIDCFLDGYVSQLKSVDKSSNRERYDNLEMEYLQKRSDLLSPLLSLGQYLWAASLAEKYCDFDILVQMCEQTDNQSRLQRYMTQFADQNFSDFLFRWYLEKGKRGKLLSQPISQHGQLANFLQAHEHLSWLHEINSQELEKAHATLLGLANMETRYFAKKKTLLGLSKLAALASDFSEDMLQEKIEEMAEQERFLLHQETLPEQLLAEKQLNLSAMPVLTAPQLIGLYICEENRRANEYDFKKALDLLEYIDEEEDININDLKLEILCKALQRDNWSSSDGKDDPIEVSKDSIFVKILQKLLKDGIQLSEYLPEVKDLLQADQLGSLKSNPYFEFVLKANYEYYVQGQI"}, "[2]": {"molecular_target": "T2, LacI-CFP-Nup155 (human, UniProt O75694 1-1391)", "T2 sequence": "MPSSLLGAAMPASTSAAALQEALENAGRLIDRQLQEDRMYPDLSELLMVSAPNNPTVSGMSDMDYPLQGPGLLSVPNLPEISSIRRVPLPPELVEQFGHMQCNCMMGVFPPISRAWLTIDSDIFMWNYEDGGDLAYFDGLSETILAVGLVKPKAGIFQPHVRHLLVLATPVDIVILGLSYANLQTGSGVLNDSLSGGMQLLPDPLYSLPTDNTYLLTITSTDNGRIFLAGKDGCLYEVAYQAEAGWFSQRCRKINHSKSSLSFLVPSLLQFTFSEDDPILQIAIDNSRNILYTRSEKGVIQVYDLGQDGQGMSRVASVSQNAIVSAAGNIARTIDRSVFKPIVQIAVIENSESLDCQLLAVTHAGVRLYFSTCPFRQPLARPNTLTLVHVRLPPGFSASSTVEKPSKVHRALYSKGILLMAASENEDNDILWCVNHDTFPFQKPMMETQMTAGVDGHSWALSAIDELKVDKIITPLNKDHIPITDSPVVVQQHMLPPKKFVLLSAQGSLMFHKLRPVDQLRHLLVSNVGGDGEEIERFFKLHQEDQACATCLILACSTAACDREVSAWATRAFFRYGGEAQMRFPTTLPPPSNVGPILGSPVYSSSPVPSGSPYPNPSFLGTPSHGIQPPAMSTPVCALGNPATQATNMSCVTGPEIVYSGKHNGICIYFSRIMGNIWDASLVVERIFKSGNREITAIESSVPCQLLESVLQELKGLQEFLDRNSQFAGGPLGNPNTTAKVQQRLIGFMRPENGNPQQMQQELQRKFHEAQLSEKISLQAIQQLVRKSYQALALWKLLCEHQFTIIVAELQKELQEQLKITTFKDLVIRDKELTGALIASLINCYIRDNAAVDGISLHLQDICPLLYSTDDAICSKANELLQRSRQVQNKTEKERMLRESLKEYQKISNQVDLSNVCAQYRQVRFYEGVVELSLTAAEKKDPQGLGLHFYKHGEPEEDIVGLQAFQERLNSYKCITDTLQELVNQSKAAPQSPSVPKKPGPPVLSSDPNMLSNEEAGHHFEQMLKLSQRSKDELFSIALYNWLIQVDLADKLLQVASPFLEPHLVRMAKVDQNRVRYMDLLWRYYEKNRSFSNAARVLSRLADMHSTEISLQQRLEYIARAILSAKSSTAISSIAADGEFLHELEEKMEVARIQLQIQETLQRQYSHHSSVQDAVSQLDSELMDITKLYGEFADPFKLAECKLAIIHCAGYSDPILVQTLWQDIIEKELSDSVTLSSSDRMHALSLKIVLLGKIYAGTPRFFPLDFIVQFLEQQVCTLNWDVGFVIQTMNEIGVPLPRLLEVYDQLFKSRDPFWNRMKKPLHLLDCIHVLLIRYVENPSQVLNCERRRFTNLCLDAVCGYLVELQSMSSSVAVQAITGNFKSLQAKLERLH"}, "[3]": {"molecular_target": "T3, LacI-CFP-Nup53 (human, UniProt Q8NFH5 1-326)", "T3 sequence": "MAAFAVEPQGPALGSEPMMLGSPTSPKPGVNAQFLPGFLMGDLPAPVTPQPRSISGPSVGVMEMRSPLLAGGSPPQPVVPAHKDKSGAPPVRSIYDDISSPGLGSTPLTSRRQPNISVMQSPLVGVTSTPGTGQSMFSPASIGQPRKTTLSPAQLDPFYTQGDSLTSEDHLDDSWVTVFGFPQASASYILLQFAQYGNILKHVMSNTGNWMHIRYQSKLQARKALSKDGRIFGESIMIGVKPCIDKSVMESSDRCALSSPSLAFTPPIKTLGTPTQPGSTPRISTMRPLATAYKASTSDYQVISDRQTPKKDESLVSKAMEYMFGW"}}, "data": [{"binder": "Nup93 (endogenous) (natural protein) MDTEGFGELLQQAEQLAAETEGISELPHVERNLQEIQQAGERLRSRTLTRTSQETADVKASVLLGSRGLDISHISQRLESLSAATTFEPLEPVKDTDIQGFLKNEKDNALLSAIEESRKRTFGMAEEYHRESMLVEWEQVKQRILHTLLASGEDALDFTQESEPSYISDVGPPGRSSLDNIEMAYARQIYIYNEKIVNGHLQPNLVDLCASVAELDDKSISDMWTMVKQMTDVLLTPATDALKNRSSVEVRMEFVRQALAYLEQSYKNYTLVTVFGNLHQAQLGGVPGTYQLVRSFLNIKLPAPLPGLQDGEVEGHPVWALIYYCMRCGDLLAASQVVNRAQHQLGEFKTWFQEYMNSKDRRLSPATENKLRLHYRRALRNNTDPYKRAVYCIIGRCDVTDNQSEVADKTEDYLWLKLNQVCFDDDGTSSPQDRLTLSQFQKQLLEDYGESHFTVNQQPFLYFQVLFLTAQFEAAVAFLFRMERLRCHAVHVALVLFELKLLLKSSGQSAQLLSHEPGDPPCLRRLNFVRLLMLYTRKFESTDPREALQYFYFLRDEKDSQGENMFLRCVSELVIESREFDMILGKLENDGSRKPGVIDKFTSDTKPIINKVASVAENKGLFEEAAKLYDLAKNADKVLELMNKLLSPVVPQISAPQSNKERLKNMALSIAERYRAQGISANKFVDSTFYLLLDLITFFDEYHSGHIDRAFDIIERLKLVPLNQESVEERVAAFRNFSDEIRHNLSEVLLATMNILFTQFKRLKGTSPSSSSRPQRVIEDRDSQLRSQARTLITFAGMIPYRTSGDTNARLVQMEVLMN", "values": [{"measurement": "percent of transfected cells showing colocalization", "setting": "[1]", "result": 21, "unit": "%"}, {"measurement": "percent of transfected cells showing colocalization", "setting": "[2]", "result": 2, "unit": "%"}, {"measurement": "percent of transfected cells showing colocalization", "setting": "[3]", "result": 67, "unit": "%"}]}]}
